According to US20080274959A1, “Actinomadura Chromoprotein, Apoprotein and Gene Cluster” (Wyeth, priority 2004, published 2008):

Columns and labels:
p21+/+ cells = assay: Sensitivity of isogenic cell lines, p21+/+; type: cell-based, human; settings: p21+/+ isogenic cell line; Mean ± SD, n = 3
Source text: (§1) The p53/p21 checkpoint monitors the integrity of the genome and blocks cell cycle progression in the event of DNA damage. Disruption of the checkpoint by deletion of the p21 gene results in failure to arrest in response to DNA damage ultimately leading to cell death through apoptosis. Since loss of this checkpoint is a hallmark of cancer cells, an isogenic pair of cell lines, wherein one pair of the cell line (p21+/+) has an intact p21 gene and one member (p21−/−) has a deletion in the p21 gene, can be used to screen for potential anti-tumor compounds by identifying molecules that preferentially induce apoptosis in p21-deficient cells.
(§2) The Actinomadura sp. 21G792 chromoprotein was added to an isogenic pair of cell lines (p21+/+ and p21−/−).

KB-8-5 = assay: IC50 against P-GP expressing cells: KB-8-5; type: cell-based; settings: KB-8-5, P-GP level +; mean of two independent experiments
Source text: (§3) Human PGP (MDR1) is an ATP-dependent efflux pump which is capable of transporting many drugs across cell membranes. High level expression of this protein has been linked to multiple drug resistance of tumors. […] The protein component of the chromoprotein probably protects the chromophore from drug efflux mediated by MDR1, and may be responsible for the beneficial antitumor effects in colon cell lines which often express MDR1.

MDA-MB-361 = assay: Potency against human tumor cell lines: MDA-MB-361; type: cell-based; settings: MDA-MB-361, Breast
bovine serum albumin = bovine serum albumin (Bos taurus, UniProt P02769); assay: Specificity of digestion: bovine serum albumin; type: biochemical; settings: neutral/acidic protein
HCT116 cells = assay: Uptake of FITC-tagged protein, fluorescent microscopy / flow cytometry; type: cell-based, human; settings: FITC-labeled
Source text: To determine the mechanism by which the chromoprotein enters cells and exerts its biological activity, the chromoprotein was labeled with a fluorescent tag (FITC) using EZ-Label fluorescent labeling kit (Pierce Biotechnology), according to the manufacturer's recommendation. […] Uptake of labeled material by HCT116 colon carcinoma cells was studied by fluorescent microscopy.
To determine whether an intact complex of chromophore and apoprotein is required for cellular and nuclear entry, the chromoprotein and apoprotein were labeled with FITC. Uptake of labeled material was studied by fluorescent microscopy.
To determine whether the entry of chromoprotein into cells is mediated by a saturable (e.g. cell surface receptor-dependent) process, HCT116 cells were incubated with FITC-labeled chromoprotein (FIG. 28, right panel) or apoprotein (FIG. 28, left panel) in the absence or presence of 10-fold excess of unlabeled reagent (unlabelled chromoprotein or apoprotein, respectively). Cells were analysed by fluorescent microscopy (left) or flow cytometry (right). […] Numbers in the histograms are mean channel numbers (FITC fluorescence).
Other means by which a protein complex can enter cells is pinocytosis, where caveolae in the surface of the cell pinch off to form pinosomes that are free within the cytoplasm of the cell. Since pinocytosis is an energy-dependent process that requires a functional tubulin cytoskeletal network, we examined the effect of sodium azide, an energy uncoupling agent and nocodazole, an agent which disrupts the tubulin cytoskeleton on cellular uptake. HCT116 cells were treated with FITC-labeled apoprotein in the absence or presence of sodium azide or nocodazole.

LOX = assay: Potency against human tumor cell lines: LOX; type: cell-based; settings: Melanoma
DLD1 = assay: Potency against human tumor cell lines: DLD1; type: cell-based; settings: DLD1, Colon
[1] = test system: p53/p21 checkpoint in HCT116 (p21+/+ and p21−/−) cells; assay: Induction of the G1/S (p53/p21) checkpoint, immunoblot; type: cell-based, human
Source text: HCT116 (p21+/+ and p21−/−) cells were exposed to the chromoprotein at various concentrations. […] Activation of the DNA damage checkpoint by the Actinomadura sp. […] 21G792 chromoprotein as shown by the cleavage of poly ADP ribose […] (PARP) (FIG. 23B). This is consistent with the lower IC50 value in the p21−/− cells.

p21−/− cells = assay: Sensitivity of isogenic cell lines, p21−/−; type: cell-based, human
Source text: as §1, §2

SW620 = assay: Potency against human tumor cell lines: SW620; type: cell-based; settings: SW620, Colon
HN5 = assay: Potency against human tumor cell lines: HN5; type: cell-based; settings: HN5, Head & Neck
Supercoiled φX174 DNA = assay: DNA cleavage assay, gel electrophoresis; type: biochemical
Procedure: Supercoiled φX174 DNA was incubated with various concentrations of the 21G792 chromoprotein and analyzed by gel electrophoresis. […] Nicked refers to single strand breaks in the DNA and linear refers to double strand breaks.

LoVo = assay: Potency against human tumor cell lines: LoVo; type: cell-based; settings: Colon
myelin basic protein = assay: Specificity of digestion: myelin basic protein; type: biochemical
KB = assay: IC50 against P-GP expressing cells: KB; type: cell-based; settings: P-GP level −, mean of two independent experiments
Source text: as §3

KB-V-1 = assay: IC50 against P-GP expressing cells: KB-V-1; type: cell-based; settings: KB-V-1, P-GP level +++; mean of two independent experiments
Source text: as §3

Toxicity in nude mice = type: in vivo; settings: for Bone Marrow Necrosis, average lesion severity: 0 = WNL, 1 = slight, 2 = mild, 3 = moderate, 4 = marked, 5 = severe
Procedure: 21G792 chromoprotein is well-tolerated in nude mice. Specifically, saline control vehicle or the chromoprotein in various doses was administered intravenously to six nude mice on days 1, 5, and 9.

Histone H1 = assay: Digestion of histone H1, SDS-PAGE; type: biochemical
Procedure: Histone H1 was incubated with various concentrations of the chromoprotein in 50 mM Tris-Cl, pH 7.5 overnight at 37° C. (FIG. 20) Digestions of histone were assessed by SDS-polyacrylamide gel electrophoresis (SDS-PAGE), followed by staining of the gel with GelCode Blue (Pierce Biotechnology, Inc, Rockford, Ill.).

Chain of bovine serum albumin (P02769 25-607): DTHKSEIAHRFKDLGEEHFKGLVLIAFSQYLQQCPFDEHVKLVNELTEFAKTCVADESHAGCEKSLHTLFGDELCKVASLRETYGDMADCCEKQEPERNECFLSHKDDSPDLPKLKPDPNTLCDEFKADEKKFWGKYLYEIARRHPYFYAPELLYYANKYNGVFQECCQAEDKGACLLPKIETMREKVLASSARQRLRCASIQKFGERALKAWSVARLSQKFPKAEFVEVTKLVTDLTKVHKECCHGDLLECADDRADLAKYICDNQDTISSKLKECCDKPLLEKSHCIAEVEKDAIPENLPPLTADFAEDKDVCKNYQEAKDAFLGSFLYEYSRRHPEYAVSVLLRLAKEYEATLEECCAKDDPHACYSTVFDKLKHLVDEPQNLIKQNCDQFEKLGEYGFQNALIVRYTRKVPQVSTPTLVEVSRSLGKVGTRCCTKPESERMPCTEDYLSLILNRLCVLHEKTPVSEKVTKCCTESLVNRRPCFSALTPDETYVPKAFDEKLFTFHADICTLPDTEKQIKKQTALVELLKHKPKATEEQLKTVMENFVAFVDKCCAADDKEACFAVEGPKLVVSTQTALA

B1: Actinomadura sp. 21G792 chromoprotein: non-covalent complex of an apoprotein and a chromophore comprising a nine-membered enediyne, produced by Actinomadura sp. 21G792 (NRRL 30778) (protein)
chain: DTVTVNYDCVGYPSDIAVTIDAPATAGVGDTATFEVSSVVTTGAPQDLPAGEVVTDMAIVVGGAQSGTITASGLTNEATPAGQPVNMVGGEAQITFTSAGSVTFTPSTTTQVDNGAQCTVVGEAPVGATTVVS
For B1, the IC50 (p21+/+ cells) was 90000 ± 32000 ng/mL, the IC50 (KB-8-5) was 6 ng/mL and the IC50 (MDA-MB-361) was 5 ng/mL. For the same molecule, the “cleavage of bovine serum albumin” value (bovine serum albumin) was “not neutral/acidic proteins such as bovine serum albumin”, the “biological activity after FITC labeling” value (HCT116 cells) was “No loss of biological activity” and the “uptake, apoprotein compared with chromoprotein” value (HCT116 cells) was “similar”. The “cellular localisation of label” value (HCT116 cells; incubation 3-6 hours, fluorescent microscopy) was “Most of the label appeared in the cytoplasm”, the “competition of uptake by 10-fold excess of unlabeled reagent” value (HCT116 cells; microscopy or flow cytometry) was “No competition of label” and the IC50 (LOX) was 1 ng/mL. For the same molecule, the IC50 (DLD1) was 8000 ng/mL, the “induction of the p21 protein” value [1] was “seen in the p21+/+ cells only” and the “phosphorylation of serine-15 of p53” value [1] was “phosphorylation of the serine-15 amino acid residue in p53”. The “activation of the p53 checkpoint” value ([1]; HCT116 p21+/+ and p21−/−, various concentrations) was “activation of the p53 checkpoint for all tested concentrations”, the “induction of apoptosis (PARP cleavage)” value ([1]; p21−/− compared with p21+/+ cells) was “preferentially observed in p21−/− cells” and the “Selectivity Ratio” value (p21−/− cells; IC50 p21+/+ versus p21−/−) was 13. For the same molecule, the IC50 (p21−/− cells; p21−/− isogenic cell line, Mean ± SD, n = 3) was 7000 ± 2000 ng/mL, the “IC50 higher for p21+/+ cells than for p21−/− cells” value (p21−/− cells; text statement of the selectivity) was 13 fold and the IC50 (SW620) was 2 ng/mL. For the same molecule, the IC50 (HN5) was 4 ng/mL, the “need of a reducing agent (dithiothreitol, DTT) for DNA cleavage” value (Supercoiled φX174 DNA) was “did not require a reducing agent” and the “DNA cleavage” value (Supercoiled φX174 DNA; various concentrations, reaction progressed over 24 hours) was “induced single strand breaks and double strand breaks”. For the same molecule, the IC50 (LoVo) was 2 ng/mL, the “cleavage of myelin basic protein” value (myelin basic protein) was “cleaves” and the IC50 (KB) was 10 ng/mL. It also gave an IC50 (KB-V-1) of 142 ng/mL, a Lymphocytes (Toxicity in nude mice; 3 mg/kg) of 290 cells/μl and a WBC (Toxicity in nude mice; 3 mg/kg) of 1430 cells/μl. For the same molecule, the “Bone Marrow Necrosis, number with lesion/total number examined” value (Toxicity in nude mice; 3 mg/kg i.v. days 1, 5, 9) was 6/6, the “Bone Marrow Necrosis, average lesion severity” value (Toxicity in nude mice; 3 mg/kg) was 1.7 and the Lymphocytes (Toxicity in nude mice; 6 mg/kg) was 40 cells/μl. For the same molecule, the WBC (Toxicity in nude mice; 6 mg/kg) was 1280 cells/μl, the “Bone Marrow Necrosis, number with lesion/total number examined” value (Toxicity in nude mice; 6 mg/kg i.v. days 1, 5, 9) was 6/6 and the “Bone Marrow Necrosis, average lesion severity” value (Toxicity in nude mice; 6 mg/kg) was 3. The “tolerability” value (Toxicity in nude mice; intravenous on days 1, 5 and 9) was “well-tolerated”, the “adverse effects in the intestine, nerves, spinal cord, liver, or at the site of injection” value (Toxicity in nude mice; mouse, in vivo) was “No adverse effects” and the “digestion of histone H1 on addition of DNA” value (Histone H1) was “inhibited by addition of DNA”. The “digestion of histones on addition of free radical scavengers” value (Histone H1; 30 mM glutathione or N-acetyl cysteine) was “inhibited by the addition of free radical scavengers”, the “digestion of histone H1” value (Histone H1; 50 mM Tris-Cl, pH 7.5 overnight at 37° C.) was “digestion of Histone H1” and the “digestion of histones on addition of protease inhibitors” value (Histone H1; PMSF, Leupeptin, Aprotinin, Pepstatin A) was “not by protease inhibitors”.
